{"source": "patent US10456465B2", "about": "“Compositions, kits, and methods for the diagnosis prognosis, monitoring, treatment and modulation of post-transplant lymphoproliferative disorders and hypoxia associated angiogenesis disorders using galectin-1” (Dana-Farber Cancer Institute, Inc., priority 2009, dated 2019)", "key": {"Gal3": {"target": "T1, Gal3 (Homo sapiens, UniProt P17931)", "T1 construct": "made in house", "T1 sequence (P17931 whole entry, species assumed)": "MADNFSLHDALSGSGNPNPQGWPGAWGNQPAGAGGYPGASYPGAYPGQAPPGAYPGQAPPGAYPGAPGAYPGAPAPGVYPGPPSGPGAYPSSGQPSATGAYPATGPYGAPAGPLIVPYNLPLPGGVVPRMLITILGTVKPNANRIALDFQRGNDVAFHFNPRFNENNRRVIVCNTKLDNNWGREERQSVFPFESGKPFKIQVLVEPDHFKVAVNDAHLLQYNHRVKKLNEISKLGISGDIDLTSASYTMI", "assay": "Binding of 488-Gal3 to HUVEC", "settings": "488-Gal3 20 μg/ml, mAb 0.5 μM", "experimental": "For glycophenotyping, ECs were incubated with biotinylated L-PHA, LEL, SNA, MAL II, PNA and HPA (all from Vector). Recombinant Gal1 was purified as described in Ilarregui et al. (2009) Nat Immunol 10, 981-991. For binding assays, ECs were incubated for 1 h at 4° C. with dyLight 488-labeled galectins in the absence or presence of lactose, sucrose, anti-Gal1 or isotype control mAb or following transfection with GnT5, GCNT1 or scrambled siRNA. Cells were analyzed on a FACSAria (BD Biosciences). For segregation, ECs were treated with Gal1 for 1 h, fixed and incubated for 1 h with anti-human VEGFR2 antibody (55B11; Cell Signaling) as described in Ilarregui et al. (2009) Nat Immunol 10, 981-991. Cells were analyzed on a Nikon laser confocal microscope (Eclipse E800).\nDyLight 488-conjugated Gal1 (488-Gal1) was obtained using DyLight labeling kit (Thermo Scientific). Inhibitors of Jak2-STAT3 (AG490; 5 μM), Jnk-SAP (SP600125; 20 μM), p38 (SB202190; 10 μM), HIF-1α (3 μM) and O-glycosylation (benzyl-α-Ga1NAc; 2 mM) were from Calbiochem. Inhibitors of Erk1/2 (U0126; 5 μM), PI(3)K-Akt (Ly294002; 2 μM) and NF-κB (BAY 11-7082; 1 μM), ROS (N-acetyl-cysteine; NAC), N-glycosylation (swainsonine; 3 μM), lactose or sucrose (30 mM) were from Sigma. PNGase F (25 U/μg protein) was from New England Biolabs. […]"}, "human galectin-1 (Gal1)": {"target": "T2, human galectin-1 (Gal1) (human, UniProt P09382 2-135)", "T2 construct": "Used as recombinant protein (rGal1); also called hGal1; rGal1", "T2 sequence (P09382 2-135 limits assumed)": "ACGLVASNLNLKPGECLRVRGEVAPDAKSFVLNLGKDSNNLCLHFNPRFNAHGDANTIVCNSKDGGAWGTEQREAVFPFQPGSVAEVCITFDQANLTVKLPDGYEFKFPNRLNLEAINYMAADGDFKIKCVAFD", "assay": "immunoblot of L428 cell lysate"}, "B16 tumors": {"tested_on": "B16 tumors", "assay": "Syngeneic B16 melanoma model", "type": "in vivo, mouse", "experimental": "Wild-type KS cells or shRNA clones (5×10^6 cells) were injected subcutaneously into 6- to 8-week old nude mice. Wild-type B16 cells or shRNA clones (2×10^5 cells) were injected into 6- to 8-week old B6 or B6/Rag^−/− mice and tumor development was monitored as described in Rubinstein et al. (2004) Cancer Cell 5, 241-251. Treatments with 8F4F8G7 mAb or control isotype (2.5, 7.5 or 15 mg/kg; i.p. injections every three days) were initiated when tumors reached 100 mm^3. Mice were sacrificed when tumors reached a volume greater than 2 cm^3. At 2 weeks after tumor challenge, lymph node cells (5×10^5 cells/well) were restimulated for 72 h with 1×10^4 irradiated (4,000 rads) B16 cells and were analyzed for proliferation and cytokine production. For adoptive transfer, splenic T cells (5×10^6) from tumor-bearing mice were labeled with CFSE (Molecular Probes) and injected through the tail vein into tumor-bearing recipient mice treated with 8F4F8G7 or control mAb. In related studies, fluorescent beads (3 μm; BD Biosciences), rather than splenic T cells, were injected into tumor-bearing animals treated with 8F4F8G7 or control antibody. CFSE^+ cells or PerCP-labeled beads were analyzed after 24 h or 15 min respectively by flow cytometry in tumor parenchyma and spleen.\nFor immunostaining, mice were anesthetized and cardiac-perfused with PBS and 4% paraformaldehyde and tissues were embedded in OCT. To visualize the vasculature, mice were intravenously injected with FITC-conjugated Griffonia simplicifolia Lectin-1 (GLS-1B4, Vector) prior to heart perfusion and fixation. Pericyte maturation was assessed using antibodies specific for αSMA (1A4; Dako), desmin (D33; Dako), PDGFRβ (APB5; Biolegend) and Rgs5 (HPA001821; Prestige Sigma). The fraction of pericyte coverage was calculated as the ratio of αSMA area to the FITC-GLS-1B4 or CD31 stained area using a specific anti-CD31 antibody (Mec13.3; BD Biosciences). For immunoperoxidase staining, paraffin-embedded human tumor sections were incubated with anti-CD31 (JC/70A; Dako) and anti-Gal1 antibodies as described in Juszczynski et al. (2007) Proc Natl Acad Sci USA 104, 13134-13139 using the Vectastain Elite ABC kit (Vector). Studies with patient biopsies were subjected to Institutional Review Boards approval (CEMIC and IBYME). Hypoxia was detected after injection of pimonidazole hydrochloride for 30 min following immunostaining with Hypoxyprobe-1 plus kit (Natural Pharmacia International)."}}, "data": [{"molecule": "anti-Gal1 monoclonal antibody 8F4F8G7 (antibody, V domains shown, Murine hybridoma mAb (deposit PTA-10535), lambda light chain; also called 14-19 8F4-F8-G7; clone 8F4.8F.67) VH: EVQLQQSVAEFVRPGASVRLSCTASGFNIKNTYIHWVRQRPEQGLEWIGKIDPANGNTKYVPEFQGKATMTADTSSNTVYLHLSSLTSEDTAIYYCVDGYYGWYFAVWGTGTTVTVSS VL: QAVVTQESALTTSPGETVTLTCRSSTGAVTTSNYANWVQEKPDHLFTGLIGATNNRAPGVPARFSGSLIGDKAVLTITGAQTEDEAIYFCALWYRNHFIFGSGTKVTVL", "values": [{"measurement": "effect on binding of Gal3 to the EC surface", "setting": "Gal3", "result": "did not interfere"}, {"measurement": "binding result", "setting": "human galectin-1 (Gal1)", "result": "binds"}, {"measurement": "microvessel density of tumors", "setting": "B16 tumors; 30 days post-inoculation", "result": "only a slight decrease"}, {"measurement": "frequency of CD34+ cells", "setting": "B16 tumors; day 20", "result": "No significant changes"}, {"measurement": "decreased tumor burden", "setting": "B16 tumors; immunocompetent mice, established B16 tumors, day 20", "result": "~86", "unit": "%"}, {"measurement": "anti-tumor effect", "setting": "B16 tumors; immunodeficient B6/Rag−/− mice", "result": "only a partial anti-tumor effect"}, {"measurement": "coverage by pericytes", "setting": "B16 tumors; vs isotype control", "result": "greater coverage"}, {"measurement": "dilated and tortuous vessels", "setting": "B16 tumors; vs isotype control", "result": "fewer"}, {"measurement": "pericyte phenotype", "setting": "B16 tumors; vs isotype control", "result": "more mature phenotype"}, {"measurement": "tumor hypoxia (pimonidazole adducts)", "setting": "B16 tumors; vs isotype control", "result": "markedly alleviated"}, {"measurement": "tumor vasculature: vessel diameter and distribution", "setting": "B16 tumors; vs isotype control, lectin-perfused vessels", "result": "resembled normal vascular networks"}, {"measurement": "expression of desmin", "setting": "B16 tumors; vs isotype-treated tumors", "result": "no significant variations"}, {"measurement": "pericyte expression of platelet-derived growth factor receptor (PDGFR)β", "setting": "B16 tumors; vs isotype-treated tumors", "result": "lower expression"}, {"measurement": "pericyte expression of regulator of G-protein signaling 5 (Rgs5)", "setting": "B16 tumors; vs isotype-treated tumors", "result": "lower expression"}, {"measurement": "pericyte expression of α-smooth muscle actin (αSMA)", "setting": "B16 tumors; vs isotype-treated tumors", "result": "higher expression"}]}]}
